In paper PMC11245600, “Therapeutic potential of the secreted Kazal-type serine protease inhibitor SPINK4 in colitis” (Nature Communications, 2024):

Molecular target: T1, Fc-tagged extracellular section of EGFR (rEGFR) (human, UniProt P00533 25-645)
T1 construct: EGFR, extracellular section, human-derived; Bought protein; also called rEGFR (extracellular part); recombinant extracellular domain of EGFR; source: bought: Sino Biological
Test: pull-down; 200 ng/mL rSPINK4-His and 1000 ng/mL Fc-tagged extracellular EGFR in 1 mL PBS with protease inhibitors, 4 °C overnight; anti-His or anti-EGFR magnetic beads, IgG control; Western blot
Settings: both partners purified

B1: human-derived recombinant SPINK4 protein, His-tagged (rSPINK4-His) (natural protein, UniProt O60575 27-86, looked up)
chain: GKLPFSRMPICEHMVESPTCSQMSNLVCGTDGLTYTNECQLCLARIKTKQDIQIMKDGKC
notes: Bought recombinant protein
B1: binds.
